The record followed here is article PMC11059001, “Crystal structure of Trichinella spiralis calreticulin and the structural basis of its complement evasion mechanism involving C1q” (Frontiers in Immunology, 2024).

One may read the Kd as the constant that tells how readily two partners part at equilibrium.

The test deals with T1, complement C1q (human, UniProt P02745;P02746;P02747).
T1 construct: also called human complement C1q; source: bought: Merk (Darmstadt, Germany); copies: 6 + 6 + 6
The experiment in a line: MST; fluorescently labelled C1q (RED-NHS) 40 nM; TsCRT, TsCRT^Δ, mutants or P^TsCRT gradient-diluted; 50 mM Hepes, 150 mM NaCl, 2 mM CaCl2, 0.05% Tween 20, pH 7.4; Monolith NT.115, LED power 20%, MST power 50%. To be noted: both partners purified.

T1 sequence (P02745 23-245, chain 1 of 3): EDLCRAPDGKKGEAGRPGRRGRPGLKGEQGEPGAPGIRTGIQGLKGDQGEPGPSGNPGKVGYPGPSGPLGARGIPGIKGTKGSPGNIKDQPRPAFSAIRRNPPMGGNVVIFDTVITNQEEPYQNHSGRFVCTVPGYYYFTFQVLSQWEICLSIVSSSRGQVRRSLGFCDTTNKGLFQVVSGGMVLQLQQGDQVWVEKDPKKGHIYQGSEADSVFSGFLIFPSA
T1 sequence (P02746 28-253, chain 2 of 3): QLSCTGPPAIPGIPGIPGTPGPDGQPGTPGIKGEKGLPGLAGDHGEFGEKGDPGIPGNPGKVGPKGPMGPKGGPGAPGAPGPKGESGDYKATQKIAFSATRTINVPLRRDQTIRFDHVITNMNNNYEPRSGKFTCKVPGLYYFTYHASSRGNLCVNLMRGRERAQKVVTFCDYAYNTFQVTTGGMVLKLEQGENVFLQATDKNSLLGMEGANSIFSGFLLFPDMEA
T1 sequence (P02747 29-245, chain 3 of 3): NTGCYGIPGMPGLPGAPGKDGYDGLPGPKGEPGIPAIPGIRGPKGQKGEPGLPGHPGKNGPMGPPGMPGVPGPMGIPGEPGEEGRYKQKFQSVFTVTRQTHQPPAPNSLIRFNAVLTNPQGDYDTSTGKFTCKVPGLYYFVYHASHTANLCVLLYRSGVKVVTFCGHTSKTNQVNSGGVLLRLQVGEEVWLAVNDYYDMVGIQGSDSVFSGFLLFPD

B1: C1q-binding peptide P^TsCRT (TsCRT residues 122-146) (peptide)
peptide: DLEDFNSDTPYRIMFGPDICGPEKR
notes: calreticulin of Trichinella spiralis (TsCRT), residues 122-146; source: synthetic peptide
Consider B1, for which binding was characterised by a dissociation constant (Kd) of 260 nM.
